Source: article PMC5843284

Experiments:
[1] = target: HIV-1 group M capsid (HIV-1 group M)
[2] = target: HIV-1 group M capsid (HIV-1 group M); remark: listed apart in the source

Substance | fold restriction of single-cycle HIV-1 infection in CRFK cells stably expressing the TRIM fusion, against the negative control [1] [fold] | further results
gorilla TRIM-RanCyp | 2 | 
titi monkey TRIM-RanCyp | 100 | 
red-capped mangabey TRIM-RanCyp | 100 | 
orangutan TRIM-RanCyp | 100 | 
human TRIM-RanCyp with the gorilla residue 75R |  | fold decrease in fold change of restriction of single-cycle HIV-1 infection in CRFK cells stably expressing the TRIM fusion, against human TRIM-RanCyp [2]: 70 fold
gorilla TRIM-RanCyp with the human residue 75G |  | fold change of restriction of single-cycle HIV-1 infection in CRFK cells stably expressing the TRIM fusion, against gorilla TRIM-RanCyp [2]: 35 fold
marmoset TRIM-RanCyp | 100 | 
chimpanzee TRIM-RanCyp | 100 | 
